The target of this experiment is HLA-DQ2.5/33mer gliadin peptide on IHW9088 cells (human). The experiment is described as follows: cell-based or functional assay.

B1: DQN0139bb//IC17 (bispecific antibody, human IgG1, kappa)
heavy 1: QSLEESGGRLVTPGTALTLTCTVSGFSLSSYAMGWVRQAPGKGLEYIGWTSPGDSAYYASWTKGRFTISRTSTTVELKITSPTTEDTATYFCARDAAYIGHWAFNLWGPGTLVTVSSASTKGPSVFPLAPSSKSTSGGTAALGCLVKDYFPEPVTVSWNSGALTSGVHTFPAVLQSSGLYSLSSVVTVPSSSLGTQTYICNVNHKPSNTKVDKRVEPKSCDKTHTCPPCPAPELRRGPSVFLFPPKPKDTLMISRTPEVTCVVVDVSHEDPEVKFNWYVDGVEVHNAKTKPREEQYNSTYRVVSVLTVLHQDWLNGKEYKCKVSNKALPAPIEKTISKAKGQPREPQVYTLPPSREEMTKNQVSLTCLVKGFYPSDIAVEWESNGQPENNYKTTPPYLDSDGSFFLYSKLTVDKSRWQQGNVFSCSVMHEALHNHYTQESLSLSP
light 1: DVVMTQTPASVSAPVGGTVTINCQASESIYSNLAWYQQKPGQPPKLLIYGASTLESGVPSRVKGSGYGTQFTLTISDLECADAATYYCQQYYGSSSTAFTFGGGTKVEIKRTVAAPSVFIFPPSDEQLKSGTASVVCLLNNFYPREAKVQWKVDNALQSGNSQESVTEQDSKDCTYSLSSTLTLSKADYEKHKVYACEVTHQGLSSPVTKSFNRGEC
heavy 2: QVQLQQSGPQLVRPGASVKISCKASGYSFTSYWMHWVNQRPGQGLEWIGMIDPSYSETRLNQKFKDKATLTVDKSSSTAYMQLSSPTSEDSAVYYCALYGNYFDYWGQGTTLTVSSASTKGPSVFPLAPSSKSTSGGTAALGCLVKDYFPEPVTVSWNSGALTSGVHTFPAVLQSSGLYSLSSVVTVPSSSLGTQTYICNVNHKPSNTKVDKRVEPKSCDKTHTCPPCPAPELRRGPSVFLFPPKPKDTLMISRTPEVTCVVVDVSHEDPEVKFNWYVDGVEVHNAKTKPREEQYNSTYRVVSVLTVLHQDWLNGKEYKCKVSNKALPAPIEKTISKAKGQPREPQVYTLPPSRKEMTKNQVSLTCLVKGFYPSDIAVEWESNGQPENNYKTTPPYLDSDGSFFLYSKLTVDKSRWQQGNVFSCSVMHEALHNHYTQKSLSLSP
light 2: DIQMTQSSSSFSVSLGDRVTITCKASEDIYNRLAWYQQKPGNAPRLLISGATSLETGVPSRFSGSGSGKDYTLSITSLQTEDVATYYCQQYWSTPYTFGGGTKLEVKRTVAAPSVFIFPPSDEQLKSGTASVVCLLNNFYPREAKVQWKVDNALQSGNSQESVTEQDSKDSTYSLSSTLTLSKADYEKHKVYACEVTHQGLSSPVTKSFNRGEC
Turning to B1, the “IC50 (read off the curve)” value is around 0.4 microgram/mL.

The values above are taken from patent publication US20220153847A1 (Chugai, published 2022).
